According to patent US9902783B2, “Antibodies and pharmaceutical compositions containing same useful for inhibiting activity of metalloproteins” (Yeda Research and Development Co. Ltd., priority 2007, dated 2018):

T1: full length native MMP-2 secreted by HT1080 cells (Homo sapiens, UniProt P08253)
T1 construct: full length native MMP-2 secreted by human fibrosarcoma (HT1080) cell cultures; endogenous in cells; host or cells: HT1080 human fibrosarcoma cells, conditioned medium
T1 sequence (P08253 30-660): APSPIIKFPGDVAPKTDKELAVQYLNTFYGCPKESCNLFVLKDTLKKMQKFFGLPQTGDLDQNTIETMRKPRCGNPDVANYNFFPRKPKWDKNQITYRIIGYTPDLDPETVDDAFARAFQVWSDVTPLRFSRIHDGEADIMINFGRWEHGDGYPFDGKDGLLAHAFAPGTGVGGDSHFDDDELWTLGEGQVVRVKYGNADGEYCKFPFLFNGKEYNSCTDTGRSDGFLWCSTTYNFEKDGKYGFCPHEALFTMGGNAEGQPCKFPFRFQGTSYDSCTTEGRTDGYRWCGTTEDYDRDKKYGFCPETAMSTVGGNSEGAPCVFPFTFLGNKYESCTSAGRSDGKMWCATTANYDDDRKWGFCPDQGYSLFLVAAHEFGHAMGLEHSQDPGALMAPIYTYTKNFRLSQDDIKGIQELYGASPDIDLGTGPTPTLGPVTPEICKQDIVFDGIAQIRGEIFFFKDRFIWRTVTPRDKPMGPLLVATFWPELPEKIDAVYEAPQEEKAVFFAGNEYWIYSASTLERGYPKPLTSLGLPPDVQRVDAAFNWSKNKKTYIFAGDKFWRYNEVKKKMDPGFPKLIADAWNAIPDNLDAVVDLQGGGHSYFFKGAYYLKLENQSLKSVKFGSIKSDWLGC

B1: 13E11: monoclonal antibody, IgG2b, raised against the hapten CoTCPP (antibody, V domains shown)
VH: EGGGLVQPGGSRKLSCAASGFTFTSFGMHWVRQAPEKGLEWVAYISSGNEIIYYADTVKGRFTISRDNPKNTLFLQMTSLRSEDTAMYYCARNYYRYGFYVMDYWGQG
VL: EIVVTQSPAILSASPGEKVTMTCRASSSVSYMHWYQQKPGSSPKPWIYATSNELASGVPARFSGSGSGTSYSLTISRVEAEDAATYYCQQWISNPLTFGAG
modifications: 13E11 mAb heavy chain; 13E11 mAb light chain
notes: monoclonal antibody, IgG2b, raised against the hapten CoTCPP
B2: 6C6: monoclonal antibody, IgG2a, raised against the hapten Imisdp; MMP-2 and MMP-9 inhibitory; SEQ ID NO: 1 (protein)
chain: CMETTQTPLSLPVSLGDQASISCRSSQSIVHSNGNTFLEWYLQKPGQSPKLLIYKVSNCRFSGVPDRFSGSGSGTDFTLKISRVEAEDLGVYYCFQASHVPPTFGGG
modifications: 6c6 mAb light chain

What was measured:
[1] = biological target: T1, full length native MMP-2 secreted by HT1080 cells; test: immunoprecipitation of HT1080 conditioned medium and western blot; type: binding; conditions: HT1080 conditioned medium, not activated
Protocol: HT1080 cells were seeded in petri dishes. After reaching 80% confluence, the medium (DMEM supplemented with 10% FCS, nonessential amino acids, penicillin, streptomycin, sodium pyruvate, and L-glutamine) was changed to serum free medium (without FCS). Following another 24 h of incubation, conditioned medium (CM) was harvested from the adherent cells and concentrated using Millipore Centricon-10 (Bedford, Mass.). Concentrated supernatants were used for immunoprecipitations. CM was incubated with anti-1 (CoTCPP) mAb (15 μg/ml) overnight at 4° C. […] Beads were washed 3 times with PBS, suspended in SDS sample buffer, and heated to 95° C. for 3 min Immunoprecipitates were recovered by centrifugation and subjected to SDS/PAGE. After separation, proteins were transferred to nitrocellulose (NC) membranes and probed with anti-MMP-2 antibody.
To activate ProMMP-2 produced by HT1080 cells, 1 mM of 4-aminophenyl mercuric acetate (APMA) was added to the concentrated CM followed by 6 h incubation in 37° C. After activation, the CM was dialyzed (×3) against PBS at 4° C., to remove APMA Immunoprecipitation with the activated medium was performed as described above.

DSS-induced colitis = test: DSS induced acute colitis in mice; type: in vivo, C57BL/6 mice; conditions: for reduction in colon length: 11 days after DSS induction, versus naïve mice
Protocol: FIGS. 15A-15C are graphs illustrating the effect of 6C6 treatment on the various manifestations of acute DSS colitis in C57BL/6 mice. Disease was induced by 2% DSS for 5 days. 6C6 treatment, 5 or 1.5 mg/kg mouse, was administered by daily i.p. injection starting from day 0. FIG. 15A: Clinical score was evaluated by daily monitoring of DAI (which is the combined score of body weight, rectal bleeding and stool consistency, on a scale of 0-4). Data are expressed as the dot distribution of a mean for each animal of days 6 to 10. FIG. 15B: Colon length. FIG. 15C: Mortality. The data presented are the combined results of two experiments, with a total of 15 mice per group.*, significant effect over colitis-untreated mice (p<0.05).
To explore the inhibitory activity of 6C6, the ability of mAb treatment to ameliorate DSS induced acute colitis was examined Specifically, 2% DSS was provided to the highly susceptible mouse strain C57BL/6 for five days. 6C6 treatment was given daily by intraperitoneal injections of 1.5 or 5 […], starting at the day of induction. Mice exposed to 2% DSS developed symptoms of acute colitis, with diarrhea, rectal bleeding and severe weight loss.

[2] = biological target: T2, catalytic zinc ion of MMP9 (Homo sapiens, UniProt P14780); test: X-ray absorption spectroscopy of MMP9-6C6 complex; conditions: zinc K edge XAS, MMP-9 catalytic domain-mAb complex
T2 construct: lacking the hinge region and the hemopexin domain, Ala1-Gly424 |P14780|MMP9_HUMAN; made in house
T2 sequence (P14780 94-444): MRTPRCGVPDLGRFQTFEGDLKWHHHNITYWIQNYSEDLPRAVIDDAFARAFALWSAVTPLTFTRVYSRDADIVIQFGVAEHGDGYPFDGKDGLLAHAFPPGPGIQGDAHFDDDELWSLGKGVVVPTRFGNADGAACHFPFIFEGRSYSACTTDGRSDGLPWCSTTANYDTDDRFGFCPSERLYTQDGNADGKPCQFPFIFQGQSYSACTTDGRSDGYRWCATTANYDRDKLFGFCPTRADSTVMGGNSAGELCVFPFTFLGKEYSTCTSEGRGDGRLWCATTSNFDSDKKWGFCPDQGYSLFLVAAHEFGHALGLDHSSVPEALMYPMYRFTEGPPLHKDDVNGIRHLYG
Text: FIG. 16 is a graph of results from X-ray absorption spectroscopy at the zinc K edge of active MMP9 (black) and inhibited MMP9-6C6 complex (red). The results are presented in the form of radial distribution from the zinc ion. The edge position the MMP-9 catalytic domain-mAb complex (red) shifts to a higher energy relative to active MMP-9 (inset) indicating binding to the catalytic zinc ion. […] Remarkably, this mode of binding is analogous to the binding of TIMPs at the active site of MMPs.
In order to further study the differences between active MMP9 and an inhibited MMP9-6C6 complex, X ray absorption spectroscopy was performed. […] The data is presented in the form of Fourier transform (FT) spectra to provide the radial distribution of the various atoms within the first and second coordination shells of the catalytic zinc ion in MMP9. Apparent change in the radial distribution spectra of the free and inhibited enzyme can be observed above the noise level. These spectral changes indicate that the local environment of the catalytic zinc ion undergoes structural changes upon binding to 6C6. The observed deviation in both spatial distribution and peak intensities of the FT spectral features between the active and the inhibited enzyme indicate unequivocally that the local structure of the catalytic zinc changes upon mAb complex formation.

Molecule	binding to Pro-MMP-2 [1]	reduction in colon length (DSS-induced colitis; 1.5 mg/kg mouse daily i.p.) [%]	reduction in colon length (DSS-induced colitis; 5 mg/kg mouse daily i.p.) [%]	disease activity index (DAI) (DSS-induced colitis; 2% DSS 5 days, daily i.p. mAb from day 0, versus untreated control)	mortality rate (DSS-induced colitis; 11 days after induction, 6C6 treated mice) [%]	binding mode at the catalytic zinc ion [2]
B1	but not Pro-MMP-2					
B2		22	16	decreased disease activity	33	directly binds the zinc ion
